In publication doi:10.1101/2021.05.27.445985:

Target: Cy5-labeled human neutrophil peptide 1 (HNP1) (human)
Experiment: fluorescence polarisation

Bovine serum albumin (from UniProt P02769 25-607) (natural protein)
Kd: 3.4 µM
